“And” between values parts separate entries of the source, which are not always exact repeats. Equal values may be shown once. Read-outs that look alike come from different tables or passages of the source.
B5: human DEspR (dual endothelin-1/VEGF signal peptide receptor) (receptor)
chain: MTMFKGSNEMKSRWNWGSITCIICFTCVGSQLSMSSSKASNFSGPLQLYQRELEIFIVLTDVPNYRLIKENSHLHTTIVDQGRTV
modifications: glycosylated (~17 kDa band, PNGase-sensitive)
notes: On intact Panc1 cells / Panc1 CSCs in the FACS assays and on HUVECs in the angiogenesis assays; In pulldowns and Western blots it came from membrane proteins of U87 CSCs and hDEspR-Cos1 permanent transfectants; also called hDEspR; DEAR

Experiments:
rat DEspR = target: T1, rat DEspR (rat); experiment: cell-based or functional assay
T1 chain: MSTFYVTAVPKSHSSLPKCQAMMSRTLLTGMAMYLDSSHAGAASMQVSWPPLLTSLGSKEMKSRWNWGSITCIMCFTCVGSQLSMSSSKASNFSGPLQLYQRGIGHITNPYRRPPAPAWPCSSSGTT

[1] = target: B5; experiment: cell-based or functional assay
[2] = target: T2, antigenic peptide (AP) EMKSRWNWGS (human/monkey/rat DEspR epitope); experiment: ELISA on antigenic peptide EMKSRWNWGS
T2 construct: also called 6G8G7 antigenic peptide; partial peptide
T2 peptide: EMKSRWNWGS
Procedure: Next, the EC50 of binding to the antigenic peptide was determined by ELISA, as shown in FIGS. 35A-35B, comparing two IgG4 6g8g7 humanized antibody candidates (including humab1 comprising SEQ ID NOs: 63 and 65 and humab2 comprising SEQ ID NO: 65 with substitutions in SEQ ID NO: 26 at Kabat residues 83V and 85Y to give 83D and 85Y), and the IgG1 6G8G7humanized monoclonal antibody (comprising SEQ ID NOs: 61 and 65), and 6G8G7 murine monoclonal antibody (“6g8 mumab”).
(§1) Neutrophils (50000/well) were incubated in the absence or presence of mAbs at 37° C. × 4 hrs and live cells counted by using Trypan blue. HUVEC-dependent angiogenesis (20,000 cells/well) was performed as described in the presence or absence of mAbs. Number of polygons and number of branch points were determined after 14 hrs of incubation at 37° C. ND, not done, indeterminate, value greater than upper limit of max dose used in these experiments.

[3] = target: B5; experiment: FACS, AF568-labelled mAb on intact DEspR+ human cells (Panc1), 4°C
Procedure: Binding was determined by FACS analysis.
as §1

[4] = target: T2, antigenic peptide (AP) EMKSRWNWGS; experiment: ELISA on antigenic peptide EMKSRWNWGS
[5] = target: B5; experiment: saturation binding by FACS, AF568-labelled mAb on DEspR+ Panc1 cells
Procedure: (§2) Saturation binding curves of monoclonal antibody (mAb) binding to DEspR on Panc1 CSCs. […] Specific binding was determined by FACS analysis using 100,000 cells in 0.25 ml containing increasing concentrations of mAbs. Incubations were done at 4° C. for 20 min and immediately subjected to FACS analysis on a BDTM LSRII Flow cytometer. Each data point was performed in duplicate.
Fully human VH5/VK1 has a slightly better Kd than VH3/VK2 fully human composite antibodies. […] (FIG. 16).

[6] = target: B5; experiment: FACS saturation binding of AF568-labelled mAb to Panc1 CSCs, 4 °C, 20 min
Procedure: as §2

[7] = target: B5; experiment: cell-based or functional assay; remark: listed apart in the source
galectin-1 = target: T3, galectin-1 (human, UniProt P09382 2-135); experiment: Western blot of the DEspR complex
T3 construct: also called gal1; recombinant galectin-1 protein

[8] = target: B5; experiment: FACS displacement of AF568-7C5B2 (10 µg/ml) from Panc1 CSCs; peptide at 100x molar excess
Procedure: 50,000 cells were reacted with 10 µg/ml AF568-labelled 7C5B2 monoclonal antibody (mAb) at 4° C. for 20 min in the absence or presence of the different peptides at 100× molar excess. Samples were immediately subjected to FACS analysis for quantification of DEspR+ cells. Samples were run in duplicates. AngII, angiotensinII; ET1, endothelin-1 (DEspR ligand); sp17, VEGFsp17 (DEspR ligand); sp26, VEGFsp26 (DEspR ligand). Data presented as Mean±SD.

T3 sequence (P09382 2-135 limits assumed): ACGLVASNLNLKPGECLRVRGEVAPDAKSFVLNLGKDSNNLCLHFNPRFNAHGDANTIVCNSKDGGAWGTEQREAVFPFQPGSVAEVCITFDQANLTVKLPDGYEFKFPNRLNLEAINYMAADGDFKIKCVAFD

B1: 6g8^IgG4 humab1 (6g8g7-derived IgG4 humanized monoclonal antibody 1) (antibody)
heavy: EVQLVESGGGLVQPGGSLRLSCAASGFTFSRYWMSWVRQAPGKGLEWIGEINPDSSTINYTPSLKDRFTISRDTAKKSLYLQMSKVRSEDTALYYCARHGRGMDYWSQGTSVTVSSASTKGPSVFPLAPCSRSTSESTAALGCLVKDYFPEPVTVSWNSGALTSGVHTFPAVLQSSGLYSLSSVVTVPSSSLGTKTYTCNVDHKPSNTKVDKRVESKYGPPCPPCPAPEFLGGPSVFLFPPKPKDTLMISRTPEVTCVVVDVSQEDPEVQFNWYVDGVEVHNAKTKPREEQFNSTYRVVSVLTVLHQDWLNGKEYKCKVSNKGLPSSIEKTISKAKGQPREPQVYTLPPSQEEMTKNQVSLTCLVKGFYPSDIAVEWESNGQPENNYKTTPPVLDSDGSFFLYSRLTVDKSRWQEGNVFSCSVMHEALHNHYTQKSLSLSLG
light: DIVLTQSPDILSVSLGERATVNCKASQNVDSNVAWYQQKPGHPPKLLIYSASYRYSRVPDRISGSGSGTDFTLTISNLQAEDVAVYYCQQYHSYPLLAFGAGTKLELKRTVAAPSVFIFPPSDEQLKSGTASVVCLLNNFYPREAKVQWKVDNALQSGNSQESVTEQDSKDSTYSLSSTLTLSKADYEKHKVYACEVTHQGLSSPVTKSFNRGEC
notes: Hinge-stabilized (S228P) human IgG4 / human kappa, transiently expressed in HEK293; AF568-labelled in the FACS assays; also called 6G8IgG4 humanized monoclonal antibody 1 (mAb 1); lead candidate humab
Question: Which “Rat Neutrophil survival, IC50” value (rat DEspR) does the source give for B1 here?
Answer: Its value is 1.16 µg/mL.

Question: And the “Human Angiogenesis assay (HUVECs): branch points, IC50” value [1]?
Answer: Its value is 4.3 µg/mL.

Question: And the “Human Angiogenesis assay (HUVECs): polygons, IC50” value [1]?
Answer: Its value is 2.6 µg/mL.

Question: And the “Bmax (A450)” value [2]?
Answer: Its value is 2.62 A450.

Question: What about the EC50 [2] of the same binder?
Answer: The EC50 was 11.7 µg/mL.

Question: What about the “Bmax (% + cells)” value [3] of the same binder?
Answer: The value was 31.5 % + cells.

Question: And the EC50 [3]?
Answer: The EC50 was ~4.3 nM and 0.64 µg/mL.

B2: 6g8^IgG1 humab1 (IgG1 6G8G7 humanized monoclonal antibody) (antibody)
heavy: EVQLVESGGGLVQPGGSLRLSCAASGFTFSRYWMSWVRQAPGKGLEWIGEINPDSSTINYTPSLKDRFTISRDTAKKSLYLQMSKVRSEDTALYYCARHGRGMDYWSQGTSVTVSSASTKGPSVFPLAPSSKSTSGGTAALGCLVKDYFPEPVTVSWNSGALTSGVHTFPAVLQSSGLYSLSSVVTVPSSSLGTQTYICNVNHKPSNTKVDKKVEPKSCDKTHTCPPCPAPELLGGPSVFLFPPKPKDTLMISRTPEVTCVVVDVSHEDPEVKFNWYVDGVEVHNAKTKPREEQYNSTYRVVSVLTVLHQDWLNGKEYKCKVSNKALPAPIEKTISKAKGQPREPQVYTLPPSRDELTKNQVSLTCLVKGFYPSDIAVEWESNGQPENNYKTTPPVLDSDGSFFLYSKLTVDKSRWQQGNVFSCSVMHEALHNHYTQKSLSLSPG
light: DIVLTQSPDILSVSLGERATVNCKASQNVDSNVAWYQQKPGHPPKLLIYSASYRYSRVPDRISGSGSGTDFTLTISNLQAEDVAVYYCQQYHSYPLLAFGAGTKLELKRTVAAPSVFIFPPSDEQLKSGTASVVCLLNNFYPREAKVQWKVDNALQSGNSQESVTEQDSKDSTYSLSSTLTLSKADYEKHKVYACEVTHQGLSSPVTKSFNRGEC
notes: Human IgG1 / human kappa
Question: With B2 as the binder, how does the “Rat Neutrophil survival, IC50” value (rat DEspR) read?
Answer: The value was 6.98 µg/mL.

Question: And the “Human Angiogenesis assay (HUVECs): branch points, IC50” value [1]?
Answer: The value was 10.4 µg/mL.

Question: And the “Human Angiogenesis assay (HUVECs): polygons, IC50” value [1]?
Answer: Its value is 9.1 µg/mL.

Question: And the “Bmax (A450)” value [2]?
Answer: Its value is 3.09 A450.

Question: And the EC50 [2]?
Answer: The EC50 was 13.4 µg/mL.

Question: What about the “Bmax (% + cells)” value [3] of the same binder?
Answer: Its value is 21.6 % + cells.

Question: What about the EC50 [3] of the same binder?
Answer: The EC50 was 1.3 µg/mL and 42.9 nM.

B3: 6G8G7 murine anti-DEspR monoclonal antibody (antibody, V domains shown)
VH: EVQLQESGGGLVQPGGSLKLSCAASGFDFSRYWMSWVRQAPGKGLEWIGEINPDSSTINYTPSLKDKFIISRDTAKKTLYLQMSKVRSEDTALYYCARHGRGMDYWSQGTSVTVSS
VL: DIVLTQTNQIMSASVGDRVSVTCKASQNVDSNVAWYQQKPGHSPKALIYSASYRYSRVPDRITGSGSGTDFTLTITNVQSKDLADYFCQQYHSYPLLAFGAGTKLELKR
notes: Mouse hybridoma antibody, detected with anti-mouse IgG2b; also called 6g8 mumab; 6g8-mumab
Question: For B3, which “Rat Neutrophil survival, IC50” value (rat DEspR) is on record?
Answer: Its value is greater than 30 µg/mL.

Question: And the “Human Angiogenesis assay (HUVECs): branch points, IC50” value [1]?
Answer: Its value is greater than 30 µg/mL.

Question: And the “Human Angiogenesis assay (HUVECs): polygons, IC50” value [1]?
Answer: Its value is greater than 30 µg/mL.

Question: And the EC50 [4]?
Answer: The EC50 was 4.96 µg/mL.

Question: What about the “Bmax (A450)” value [2] of the same binder?
Answer: The value was 6.36 A450.

Question: And the EC50 [2]?
Answer: Its EC50 is 2.96 µg/mL.

Question: And the Kd [5]?
Answer: The Kd was roughly 5.2 µg/mL.

Question: What about the “Bmax (% + cells)” value [3] of the same binder?
Answer: The value was 35.6 % + cells.

Question: What about the EC50 [3] of the same binder?
Answer: Its EC50 is 5.39 µg/mL and 178 nM.

Question: And the Kd [6]?
Answer: Its Kd is 5.2 µg/mL.

Question: With MNFLLSWVHWSLALLLYLHHAKWSQA (ligand) [VEGFsp26 (VEGF signal peptide 26)] as the binder, how does the “inhibition of HUVEC angiogenesis, IC50 based on total tube length” value [7] read?
Answer: Its value is 1.9 nM.

Question: For MNFLLSWVHWSLALLLY (ligand) [VEGFsp17 (VEGF signal peptide 17)], which “stimulation of HUVEC angiogenesis, EC50 based on total tube length” value [7] is on record?
Answer: Its value is 1.98 nM.

B4: 7C5B2 mouse anti-human DEspR monoclonal antibody (antibody, V domains shown)
VH: QVQLKESGPGLVAPSQSLSITCTVSGFSLKSYAVSWVRQPPGKGLEWLGVIWGDGSTDYHSALISRLSISKDNSKSQFFLRLNSLQTDDTATYYCARGTGTGFAYWGQGTLVTVSA
VL: DVVMTQTPLSLPVSLGDQASISCRSSQSLVHSNGNTYLHWYLQKPGQSPKLLIYKVSNRFSGVPDRFSGSGSGTDFTLKISRVEAEDLGIYFCSQCTHIPWTFGGGTNLEIK
notes: Mouse hybridoma antibody raised against the 9-aa N-terminal peptide of human DEspR; IgG2b was used as its isotype control; AF568-labelled in the FACS and internalization assays; also called 7C5-murine monoclonal antibody; HV2KV2
Question: What does the source list for B4?
Answer: Kd [5]: ~5.2 µg/mL; Kd [6]: 5.2 µg/mL

Question: Does B5 bind (galectin-1)?
Answer: Result: binds

Question: Does CSCSSLMDKECVYFCHLDIIW (ligand, UniProt P05305 53-73, looked up, also called ET1; ET-1) [endothelin-1] bind [8]?
Answer: Result: binds

Source: patent US20190153106A1 (TRUSTEES OF BOSTON UNIVERSITY, published 2019)
